Measured values from PMC5670179, “Folding of a bacterial integral outer membrane protein is initiated in the periplasm” (Nature Communications, 2017).

Key:
[1] = target: His10-UpaGΔ2(Y1735am) (E. coli O6:H1 strain CFT073); experiment: SDS-PAGE of unheated (25 °C) against heated (99 °C) samples after Ni-NTA purification; cells radiolabelled, UV irradiated and PK treated; membranes solubilised in 2% DDM, Ni-NTA in 50 mM NaH2PO4 pH 8, 500 mM NaCl, 0.05% DDM; eluate kept at 25 or 99 °C in SDS sample buffer for 5 min
[2] = target: the molecule itself; experiment: SDS- and heat-resistant oligomers on SDS-PAGE after pulse-chase labelling and immunoprecipitation; cells grown in M9 minimal medium at 37 °C, pTrc99a derivatives; TCA precipitation, immunoprecipitation with anti-HA or anti-UpaG antiserum, samples heated to 99 °C for 5 min, 8-16% Tris-glycine gels

| Molecule | stoichiometry N [1] | stoichiometry N [2] |
| --- | --- | --- |
| His10-UpaGΔ2(Y1735am) (from UniProt A0A0H2VCA1 1609-1778) (domain or fragment) | 3 | – |
| HA-UpaGΔ2 (domain or fragment, UpaG, trimeric autotransporter adhesin of uropathogenic E. coli O6:H1 strain CFT073; the C-terminal 170 residues (passenger-domain fragment 1609-1689 and beta-domain segment 1689-1778) of the 1778 residue full-length protein; Made with the native UpaG signal peptide (residues 1-53) before the HA tag; the signal peptide is meant to be cleaved on export; Two glycines were inserted between signal …) AGVNATDAVNVSQLKSSEAGGVRYDTKADGSIDYSNITLGGGNSGTTRISNVSAGVNNNDAVNYAQLKQSVQETKQYTDQRMVEMDNKLSKTESKLSGGIASAMAMTGLPQAYTPGASMASIGGGTYNGESAVALGVSMVSANGRWVYKLQGSTNSQGEYSAALGAGIQW | – | 3 |
